Results published in article PMC11436023.

Assays:
[1] = molecular target: SpyCatcher mi3 nanoparticle; experiment: covalent SpyTag-SpyCatcher coupling, read by SDS-PAGE; MBP SpyTag mixed with SpyCatcher mi3 NPs at 1:1 and 1:2 molar ratios, 4 °C overnight, TBS (25 mM Tris-HCl, 300 mM NaCl, pH 8.5); Coomassie-stained SDS-PAGE, band intensities quantified
[2] = molecular target: SpyCatcher mi3 nanoparticle; experiment: cryo-EM structure; CAP255 gp140 SpyTag-SpyCatcher mi3 NPs; whole NP 9.4 Å (icosahedral), masked mi3 5.4 Å, single Env trimer-SpyCatcher 17.7 Å without symmetry
[3] = molecular target: SpyCatcher mi3 nanoparticle; experiment: negative stain electron microscopy; NPs alone or after coupling, on glow-discharged carbon-coated grids, 2% uranyl acetate; 2D classification and ~20 Å 3D maps with icosahedral symmetry imposed
[4] = molecular target: CAP255 gp140 SpyTag (HIV-1 subtype C (patient CAP255)); experiment: SEC + native gel or EMSA; lectin-purified CAP255 gp140 SpyTag on HiLoad 16/600 Superdex 200 pg; fractions on Blue NativePAGE 3-12% Bis-Tris gels, Coomassie

Substance	coupling efficiency [1] [%]	stoichiometry N (MBP monomers per NP) [1]	stoichiometry N (Env trimers per NP) [2]	stoichiometry N (Env trimers per NP) [3]	stoichiometry N [4]
MBP SpyTag	100	60	–	–	–
CAP255 gp140 SpyTag (domain or fragment)	–	–	12	12	3
